Experimental data published in PMC9584609, “Determination of oligomeric states of proteins via dual-color colocalization with single molecule localization microscopy” (eLife, 2022).

Target: the molecule itself
Assay: dual-color colocalization single molecule localization microscopy (DCC-SMLM); HEK293T cells transiently transfected, fixed with cold methanol; each subunit C-terminally tagged with mVenus and PAmCherry; colocalization ratio compared with the calibrated DCC model (coefficient of mismatch M^2) and with reference proteins (two-sample K.-S. test)

Protein	stoichiometry N
SLC26A3 tagged with mVenus and PAmCherry (natural protein, human, UniProt P40879 1-764, looked up, SLC26A3, human epithelial chloride-bicarbonate exchanger; The same construct was used for DCC-SMLM and hrCNE; also called epithelial chloride-bicarbonate exchanger SLC26A3; source: HEK293T, transfected; on fixed cells (DCC-SMLM) and in lysate (digitonin or DDM, hrCNE); not shown: mVenus, C-terminal, kept; PAmCherry, C-terminal, kept) MIEPFGNQYIVARPVYSTNAFEENHKKTGRHHKTFLDHLKVCCSCSPQKAKRIVLSLFPIASWLPAYRLKEWLLSDIVSGISTGIVAVLQGLAFALLVDIPPVYGLYASFFPAIIYLFFGTSRHISVGPFPILSMMVGLAVSGAVSKAVPDRNATTLGLPNNSNNSSLLDDERVRVAAAASVTVLSGIIQLAFGILRIGFVVIYLSESLISGFTTAAAVHVLVSQLKFIFQLTVPSHTDPVSIFKVLYSVFSQIEKTNIADLVTALIVLLVVSIVKEINQRFKDKLPVPIPIEFIMTVIAAGVSYGCDFKNRFKVAVVGDMNPGFQPPITPDVETFQNTVGDCFGIAMVAFAVAFSVASVYSLKYDYPLDGNQELIALGLGNIVCGVFRGFAGSTALSRSAVQESTGGKTQIAGLIGAIIVLIVVLAIGFLLAPLQKSVLAALALGNLKGMLMQFAEIGRLWRKDKYDCLIWIMTFIFTIVLGLGLGLAASVAFQLLTIVFRTQFPKCSTLANIGRTNIYKNKKDYYDMYEPEGVKIFRCPSPIYFANIGFFRRKLIDAVGFSPLRILRKRNKALRKIRKLQKQGLLQVTPKGFICTVDTIKDSDEELDNNQIEVLDQPINTTDLPFHIDWNDDLPLNIEVPKISLHSLILDFSAVSFLDVSSVRGLKSILQEFIRIKVDVYIVGTDDDFIEKLNRYEFFDGEVKSSIFFLTIHDAVLHILMKKDYSTSKFNPSQEKDGKIDFTINTNGGLRNRVYEVPVETKF	2
prestin (Slc26a5) tagged with mVenus and PAmCherry (natural protein, rat, UniProt Q9EPH0 1-744, looked up, prestin (Slc26a5), rat motor protein of cochlear outer hair cells; The same construct was used for DCC-SMLM and hrCNE; also called SLC26A5/prestin; source: HEK293T, transfected; on fixed cells (DCC-SMLM) and in lysate (digitonin or DDM, hrCNE); not shown: mVenus, C-terminal, kept; PAmCherry, C-terminal, kept) MDHAEENEIPAETQKYLVERPIFSHPVLQERLHVKDKVTDSIGDKLKQAFTCTPKKVRNIIYMFLPITKWLPAYKFKEYVLGDLVSGISTGVLQLPQGLAFAMLAAVPPVFGLYSSFYPVIMYCFFGTSRHISIGPFAVISLMIGGVAVRLVPDDIVIPGGVNATNGTEARDALRVKVAMSVTLLSGIIQFCLGVCRFGFVAIYLTEPLVRGFTTAAAVHVFTSMLKYLFGVKTKRYSGIFSVVYSTVAVLQNVKNLNVCSLGVGLMVFGLLLGGKEFNERFKEKLPAPIPLEFFAVVMGTGISAGFNLHESYSVDVVGTLPLGLLPPANPDTSLFHLVYVDAIAIAIVGFSVTISMAKTLANKHGYQVDGNQELIALGICNSIGSLFQTFSISCSLSRSLVQEGTGGKTQLAGCLASLMILLVILATGFLFESLPQAVLSAIVIVNLKGMFMQFSDLPFFWRTSKIELTIWLTTFVSSLFLGLDYGLITAVIIALLTVIYRTQSPSYTVLGQLPDTDVYIDIDAYEEVKEIPGIKIFQINAPIYYANSDLYSSALKRKTGVNPAIIMGARRKAMRKYAKEVGNANIANATVVKVDAEVDGENATKPEEEDDEVKFPPIVIKTTFPEELQRFLPQGENIHTVILDFTQVNFMDSVGVKTLAGIVKEYGDVGIYVYLAGCSAQVVNDLTSNRFFENPALKELLFHSIHDAVLGSQVREAMAEQETTVLPPQEDMEPNATPTTPEA	2
